Target: IL-1 receptor expressed by INS-1 cells (rat (INS-1 cells are derived from a rat insulinoma)) (UniProt Q02955)

IL-1β (ligand) was tested, and the NO release was 6.56 µM.

Reference: US20140011728A1
